We go through four molecules from patent US20200317768A1 (published 2020).

Assay in all cases: SPR (Biacore); KD of SG1 divided by KD of the variant for this FcgR;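 note: relative to parent M103205H795-SG1 carrying the SG1 human heavy chain constant region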
In general terms: Surface plasmon resonance follows binding to a sensor surface in real time, without labels.

The target of assay [1] is T1, cynomolgus monkey FcγRIIa2 extracellular domain with C-terminal His-tag (cynomolgus monkey).
T1 construct: Expressed in FreeStyle 293 cells and purified; also called cyno FcγRIIa2; cynoFcgRIIa2; not shown: C-terminal His-tag
T1 chain: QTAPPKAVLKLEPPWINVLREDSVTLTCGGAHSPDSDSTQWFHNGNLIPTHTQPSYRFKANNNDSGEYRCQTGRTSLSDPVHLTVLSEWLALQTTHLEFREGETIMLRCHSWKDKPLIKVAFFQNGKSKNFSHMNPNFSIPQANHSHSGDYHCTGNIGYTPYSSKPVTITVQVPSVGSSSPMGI

Assay [2] addresses T2, human FcγRIIIaV extracellular domain with C-terminal His-tag (human, UniProt P08637 17-208).
T2 construct: Expressed in FreeStyle 293 cells and purified; also called FcgRIIIaV; not shown: C-terminal His-tag

Assay [3] has as its target T3, cynomolgus monkey FcγRIIIaS extracellular domain with C-terminal His-tag (cynomolgus monkey, UniProt Q8SPW2 21-206 at identity 1.00)).
T3 construct: Expressed in FreeStyle 293 cells and purified; also called cyno FcγRIIIaS; cynoFcγRIIIaS; not shown: C-terminal His-tag
T3 chain: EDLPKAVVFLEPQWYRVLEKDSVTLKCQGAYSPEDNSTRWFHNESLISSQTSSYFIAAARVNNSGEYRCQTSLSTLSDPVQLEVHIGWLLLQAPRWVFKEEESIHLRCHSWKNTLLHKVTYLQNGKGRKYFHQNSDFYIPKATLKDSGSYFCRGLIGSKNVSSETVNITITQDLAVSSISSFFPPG

Assay [4] deals with T4, cynomolgus monkey FcγRIIa1 extracellular domain with C-terminal His-tag (cynomolgus monkey).
T4 construct: Expressed in FreeStyle 293 cells and purified; also called cyno FcγRIIa1; cynoFcgRIIa1; not shown: C-terminal His-tag
T4 chain: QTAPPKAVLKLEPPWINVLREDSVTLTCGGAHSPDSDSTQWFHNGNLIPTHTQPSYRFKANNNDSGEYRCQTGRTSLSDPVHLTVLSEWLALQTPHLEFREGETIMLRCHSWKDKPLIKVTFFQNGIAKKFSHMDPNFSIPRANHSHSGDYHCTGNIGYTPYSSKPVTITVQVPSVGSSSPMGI

In assay [5] the target is T5, cynomolgus monkey FcγRIIb extracellular domain with C-terminal His-tag (cynomolgus monkey).
T5 construct: Expressed in FreeStyle 293 cells and purified; also called cyno FcγRIIb; cynoFcγRIIb; not shown: C-terminal His-tag
T5 chain: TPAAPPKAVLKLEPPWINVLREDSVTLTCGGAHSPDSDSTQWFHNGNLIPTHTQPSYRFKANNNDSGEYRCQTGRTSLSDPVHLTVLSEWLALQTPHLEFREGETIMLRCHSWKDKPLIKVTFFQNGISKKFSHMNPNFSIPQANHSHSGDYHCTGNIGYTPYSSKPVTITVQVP

Assay [6] has as its target T6, human FcγRIIb extracellular domain with C-terminal His-tag (human, UniProt P31994 43-217).
T6 construct: Expressed in FreeStyle 293 cells and purified; also called humanFcgRIIb; not shown: C-terminal His-tag
T6 sequence: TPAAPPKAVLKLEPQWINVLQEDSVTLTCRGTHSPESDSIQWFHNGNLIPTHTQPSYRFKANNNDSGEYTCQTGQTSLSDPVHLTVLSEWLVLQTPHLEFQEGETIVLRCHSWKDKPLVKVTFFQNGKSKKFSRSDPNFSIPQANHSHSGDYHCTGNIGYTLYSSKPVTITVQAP

Assay [7] addresses T7, human FcγRIIaH extracellular domain with C-terminal His-tag (human, UniProt P12318 34-217).
T7 construct: Expressed in FreeStyle 293 cells and purified; also called human FcγRIIa (type H); FcgRIIaH; not shown: C-terminal His-tag
T7 sequence: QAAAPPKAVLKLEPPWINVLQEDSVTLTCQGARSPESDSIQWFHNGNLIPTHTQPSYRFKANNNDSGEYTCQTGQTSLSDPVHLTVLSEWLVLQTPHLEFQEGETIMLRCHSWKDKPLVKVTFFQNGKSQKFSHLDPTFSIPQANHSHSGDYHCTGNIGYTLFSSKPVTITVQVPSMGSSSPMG

In assay [8] the target is T8, cynomolgus monkey FcγRIIa3 extracellular domain with C-terminal His-tag (cynomolgus monkey).
T8 construct: Expressed in FreeStyle 293 cells and purified; also called cyno FcγRIIa3; cynoFcgRIIa3; not shown: C-terminal His-tag
T8 chain: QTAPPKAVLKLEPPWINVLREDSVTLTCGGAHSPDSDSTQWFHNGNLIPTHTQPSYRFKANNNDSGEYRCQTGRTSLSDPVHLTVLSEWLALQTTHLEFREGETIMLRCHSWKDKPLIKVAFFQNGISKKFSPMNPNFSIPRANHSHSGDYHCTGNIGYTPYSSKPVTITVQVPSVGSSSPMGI

T2 sequence (P08637 17-208 F176V): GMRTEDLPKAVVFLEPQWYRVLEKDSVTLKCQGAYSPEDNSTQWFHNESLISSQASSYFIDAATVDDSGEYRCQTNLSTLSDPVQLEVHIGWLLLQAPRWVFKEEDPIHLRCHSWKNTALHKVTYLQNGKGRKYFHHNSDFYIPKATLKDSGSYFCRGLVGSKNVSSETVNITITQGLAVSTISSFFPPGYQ

B1: M103205H795-MY178 / M103202L889-SK1 (antibody, human IgG1, kappa)
heavy: QVTLKESGPVLVKPTETLTLTCTVSGIDLSHDDISWVRQAPGKGLEWVGIISYAGSTYYASWAKGRLTISKDTSKNQVVLTMTNMDPVDTATYYCARGVPAYSHGGDLWGQGTLVTVSSASTKGPSVFPLAPSSKSTSGGTAALGCLVKDYFPEPVTVSWNSGALTSGVHTFPAVLQSSGLYSLSSVVTVPSSSLGTQTYICNVNHKPSNTKVDKKVEPKSCDKTHTCPPCPAPELLNGPSVFLFPPKPKDTLMISRTPEVTCVVVDVSEEDPEVKFNWYVDGVEVHNAKTKPREEQYNSTYRVVSVLTVLHQDWLNGKEYKCKVSNKALPAPIEKTISKAKGQPREPQVYTLPPSREEMTKNQVSLTCLVKGFYPSDIAVEWESNGQPENNYKTTPQVLDSDGSFFLYSKLTVDKSRWQQGNVFSCSVMHEALHNHYTQKSLSLSP
light: DIVMTQSPATLSLSPGERATLSCTSSQSVYHANWLSWFQQKPGQPPKLLIYWASTLAYGVPSRFSGSGSGTDFTLTISSLQPEDAATYYCAGGYGGGRYAFGQGTKVEIKRTVAAPSVFIFPPSDEQLKSGTASVVCLLNNFYPREAKVQWKVDNALQSGNSQESVTEQDSKDSTYSLSSTLTLSKADYEKHKVYACEVTHQGLSSPVTKSFNRGEC
notes: Position 396 variant derived from MY052, expressed with M103202L889-SK1 as light chain
Consider B1, for which the “KD fold (SG1 = 1)” value in assay [1] is 2.4 fold; in assay [2], 0.18 fold; in assay [3] it was 0.12 fold; in assay [4], 1.6 fold; in assay [5], 1.9 fold; in assay [6], 3.5 fold. For the same molecule, the entries for the “KD fold (SG1 = 1)” value in assay [7] and in assay [8] were 0.5 fold and 2 fold, respectively.

B2: M103205H795-MY179 / M103202L889-SK1 (antibody, human IgG1, kappa)
heavy: QVTLKESGPVLVKPTETLTLTCTVSGIDLSHDDISWVRQAPGKGLEWVGIISYAGSTYYASWAKGRLTISKDTSKNQVVLTMTNMDPVDTATYYCARGVPAYSHGGDLWGQGTLVTVSSASTKGPSVFPLAPSSKSTSGGTAALGCLVKDYFPEPVTVSWNSGALTSGVHTFPAVLQSSGLYSLSSVVTVPSSSLGTQTYICNVNHKPSNTKVDKKVEPKSCDKTHTCPPCPAPELLNGPSVFLFPPKPKDTLMISRTPEVTCVVVDVSEEDPEVKFNWYVDGVEVHNAKTKPREEQYNSTYRVVSVLTVLHQDWLNGKEYKCKVSNKALPAPIEKTISKAKGQPREPQVYTLPPSREEMTKNQVSLTCLVKGFYPSDIAVEWESNGQPENNYKTTPRVLDSDGSFFLYSKLTVDKSRWQQGNVFSCSVMHEALHNHYTQKSLSLSP
light: DIVMTQSPATLSLSPGERATLSCTSSQSVYHANWLSWFQQKPGQPPKLLIYWASTLAYGVPSRFSGSGSGTDFTLTISSLQPEDAATYYCAGGYGGGRYAFGQGTKVEIKRTVAAPSVFIFPPSDEQLKSGTASVVCLLNNFYPREAKVQWKVDNALQSGNSQESVTEQDSKDSTYSLSSTLTLSKADYEKHKVYACEVTHQGLSSPVTKSFNRGEC
notes: as for B1
On to B2, for which the “KD fold (SG1 = 1)” value in assay [1] amounted to 2.5 fold; in assay [2], 0.14 fold; in assay [3], 0.13 fold; in assay [4] it was 1.7 fold; in assay [5], 1.8 fold; in assay [6], 3.8 fold. Besides, the “KD fold (SG1 = 1)” value in assay [7] was determined as 0.6 fold; in assay [8], 2.2 fold.

B3: M103205H795-MY180 / M103202L889-SK1 (antibody, human IgG1, kappa)
heavy: QVTLKESGPVLVKPTETLTLTCTVSGIDLSHDDISWVRQAPGKGLEWVGIISYAGSTYYASWAKGRLTISKDTSKNQVVLTMTNMDPVDTATYYCARGVPAYSHGGDLWGQGTLVTVSSASTKGPSVFPLAPSSKSTSGGTAALGCLVKDYFPEPVTVSWNSGALTSGVHTFPAVLQSSGLYSLSSVVTVPSSSLGTQTYICNVNHKPSNTKVDKKVEPKSCDKTHTCPPCPAPELLNGPSVFLFPPKPKDTLMISRTPEVTCVVVDVSEEDPEVKFNWYVDGVEVHNAKTKPREEQYNSTYRVVSVLTVLHQDWLNGKEYKCKVSNKALPAPIEKTISKAKGQPREPQVYTLPPSREEMTKNQVSLTCLVKGFYPSDIAVEWESNGQPENNYKTTPSVLDSDGSFFLYSKLTVDKSRWQQGNVFSCSVMHEALHNHYTQKSLSLSP
light: DIVMTQSPATLSLSPGERATLSCTSSQSVYHANWLSWFQQKPGQPPKLLIYWASTLAYGVPSRFSGSGSGTDFTLTISSLQPEDAATYYCAGGYGGGRYAFGQGTKVEIKRTVAAPSVFIFPPSDEQLKSGTASVVCLLNNFYPREAKVQWKVDNALQSGNSQESVTEQDSKDSTYSLSSTLTLSKADYEKHKVYACEVTHQGLSSPVTKSFNRGEC
notes: as for B1
Turning to B3, the “KD fold (SG1 = 1)” value in assay [1] was determined as 1.9 fold; in assay [2], 0.14 fold; in assay [3], 0.12 fold; in assay [4] it was 1.2 fold; in assay [5] it was 1.4 fold; in assay [6], 2.4 fold. Also, the “KD fold (SG1 = 1)” value in assay [7] came to 0.4 fold; in assay [8], 1.4 fold.

B4: M103205H795-MY181 / M103202L889-SK1 (antibody, human IgG1, kappa)
heavy: QVTLKESGPVLVKPTETLTLTCTVSGIDLSHDDISWVRQAPGKGLEWVGIISYAGSTYYASWAKGRLTISKDTSKNQVVLTMTNMDPVDTATYYCARGVPAYSHGGDLWGQGTLVTVSSASTKGPSVFPLAPSSKSTSGGTAALGCLVKDYFPEPVTVSWNSGALTSGVHTFPAVLQSSGLYSLSSVVTVPSSSLGTQTYICNVNHKPSNTKVDKKVEPKSCDKTHTCPPCPAPELLNGPSVFLFPPKPKDTLMISRTPEVTCVVVDVSEEDPEVKFNWYVDGVEVHNAKTKPREEQYNSTYRVVSVLTVLHQDWLNGKEYKCKVSNKALPAPIEKTISKAKGQPREPQVYTLPPSREEMTKNQVSLTCLVKGFYPSDIAVEWESNGQPENNYKTTPTVLDSDGSFFLYSKLTVDKSRWQQGNVFSCSVMHEALHNHYTQKSLSLSP
light: DIVMTQSPATLSLSPGERATLSCTSSQSVYHANWLSWFQQKPGQPPKLLIYWASTLAYGVPSRFSGSGSGTDFTLTISSLQPEDAATYYCAGGYGGGRYAFGQGTKVEIKRTVAAPSVFIFPPSDEQLKSGTASVVCLLNNFYPREAKVQWKVDNALQSGNSQESVTEQDSKDSTYSLSSTLTLSKADYEKHKVYACEVTHQGLSSPVTKSFNRGEC
notes: as for B1
Take B4: the “KD fold (SG1 = 1)” value in assay [1] was 2.2 fold; in assay [2] it was 0.11 fold; in assay [3], 0.09 fold; in assay [4] it was 1.4 fold; in assay [5], 1.8 fold; in assay [6], 3.3 fold. The figures for the “KD fold (SG1 = 1)” value in assay [7] and in assay [8] were 0.5 fold and 1.8 fold, respectively.
